Source: the domain aggregation screens of Martell et al. (2025)

Experiment: soluble fraction after stress (log2 fold change); higher = more stays soluble; pooled small domains, quantitative proteomics
Conditions: stress: pH 4
Outline: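 Small protein domains from pooled custom libraries were exposed to pH 4, then quantified with high-throughput quantitative proteomics. The fold change in how much of each domain remains soluble is read as aggregation propensity. It is given as log2, with higher values meaning more stayed soluble.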

| Sequence | soluble fraction (log2) |
| --- | --- |
| HMGEFVQLKNRTGSVIEAKILNYQNGKVKLQRKDGVIFVVPISIFDRMSSSIIENKAKEMDSF | 0.255 |
| HMGEIHAQIPGLVSHLFVKEGNTVQVEQKLFILEAMKMENEIDSPIQGTVKRIHIATGSKVEKGDLIMEIS | -0.117 |
| HMGEKFTFGQIAKAKAYAKTYANDMTSAVKNIEAIATGLSKHPEVADTLKKANENQELNRITKLAG | 0.369 |
| HMGEKPTEITLSNAISVQELAEKLYVSETDIIRTLFLDGIIVNINQVLDLETAVKVGDQLGVTITIVE | -1.8 |
| HMGEKTVPNVIGQKLATAKQLLEKEGLTVGSTSYNKNQADKDTVLSTDPAPGSHLSEGAKVNLTLSSGA | 0.0205 |
| HMGEKVIAVSGGFDPIHVGHLRMMQDAAQHGRLVVIVNSDEWLLKKKGYVFMPWEERAELIGAYDFVDE | -0.6 |
| HMGELDPKIIAQINTFLQGITKLIEHPGNKDAKKTALGALHKLTFDQNITANFGKQLGQLDQVIQSSEET | -0.127 |
| HMGELGPGSRGQAVRALQERLMALGFPLARFGADGIFGRETTGALRAFQHVAGLSPTGLGDHETLKWLGII | -0.351 |
| HMGELTNALATLSERERDVARLVAQGLDNRQIAAQLFLSEGTVRNRISDILDKLALTNRTQLAIAWLHAE | -0.615 |
| HMGEPTLTIRVVSYNPQSGEMVVVARDPLSGRYALATLNVRTGAGQMIGPQGELLPIENFALGS | -0.692 |
| HMGEQVAVPDVTKKSVREVNNILTSAGLRLQIEGSGISVRQDPPADTMVAPDTVVTVSFEPP | -0.0261 |
| HMGEQVFSRKDLAINGNDLKAVFGWPPGPKYREALDQLFHWVLEDPARNRRETLLAYLHSLYD | -0.774 |
| HMGESEKTLELVSQKDALVDEAFFFVRFQALLESNKTKGAQDLLDQSNHLSAAKLLQANAYLDIV | 0.038 |
| HMGESFEELAREISDDTGSKTEGGETGLFPRGVMAPQFEEAAFLLKVGDISEPIRTKFGYHIIKLKEIKP | -0.0823 |
| HMGESVVVPDLRGKTLEEARAILKKVDLDYEINDSTYSKTAVPGTIRDIVPAPGSHVKAGRILFVSING | 0.0395 |
| HMGETISVPAVRSLAYDRAVDMLTAEGLKGIVADSVYDNRTQPGTVIEQNPKAGTIVKEGREVYLTINA | 0.0278 |
| HMGFAPEAAREEVAQLIGQRGRAVTVLRPSGQVEIAGRRFEATVEVGAVDAGDTIVVRGQTAFALLVEKAD | 0.0812 |
| HMGFKLQRYTTFVVERLKKYQDTPAAQMHDLLKEHYPDFPAVSPKTVYNYVMKIRQEHGLPAV | ≥ 0.43 |
| HMGFSERLAQAMSHAGYTQGGLAKAVGMAQSSVNKLLNNANSSRKTVEIASVLGVRPEWLSTGEGDML | 0.188 |
| HMGFSKGKRDLIRMIKLAIRELADDNGRAQIEDVITRLVQEGHSRDEIRLQIDMFLRQGEAMEPKQGIIKL | -0.891 |
| HMGFSLEQFGTDPDLKKIVENAFERIITASEGRIFKSDFSSNNSALPLEIFSFLIAVILLKLSGMN | -0.489 |
| HMGFVATRSRKFLPFSEARAITRGLGFSNQKDYKEWIKGNGNELLLPFNPWRTYGDSGWKGWKDFLGTDKA | 0.0101 |
| HMGFYDLFINLADKVGSLADVTQILAEARINLVNVHILEIREEIDGIAQLTFSSEKDRQKALELLKTKYK | -1.52 |

| Sequence | soluble fraction (log2) |
| --- | --- |
| HMGGDFVEHLKDLASEAPVIRLVNTIIGRVIDLRASDIHLEPFDDGLHVRYRVDGVIHPGELVPPRLS | -0.249 |
| HMGGEGQIEIREREGIPAEAWVDGVMRGQTPLRVEHVSIGTRRVELRAEGRPPVAADVLVRPTVTALVELS | -0.192 |
| HMGGEHPIPEDWAVNEANYEHGAKFYGYTRAHVDAEAQAFRDQYAANGKKYVDWDAHFRTFMRWQNERRYG | -0.416 |
| HMGGEPVSARVPDTLHGARLDATAAALFPDFSRSRLAEWIKAGRLRRNDQPAKPRDKVAVDDHLLLIPEY | -0.431 |
| HMGGFSVTAEAFDGTPEVGKTVGFTAGSTKIKVEDTKGDATFGTILEKETVGFGEGKYTYFYIGL | -0.276 |
| HMGGKAITGGEGEIIIRADKAETVAIYGIDGRLVHRVSTEAGDTKRVSVPAGIYIVKGAKVVV | 0.42 |
| HMGGKTAVVTGSLVNVRKGPGTGNALVGQVARGDELPVLGQDGDWYQIKLANGSNGWVAGWLVSLKDAVP | -0.112 |
| HMGGLIDQSIQEIIDKYSVPGKKIQKAQRLKIVAEMHTKGIFKMRGGVQQAAQALGVTRYTVYNDLEVMN | -0.259 |
| HMGGLLSVIQKKAINNVKDRYSENAIKSMTKVQLHDLIKAETSRLLDPANAKETPEYQAFLEE | 0.116 |
| HMGGLSAEQKNGIQSVLKNFDPKNLTSADAKSITSEFKKLGVQPGKDLETTMAASGFDAKEVGRLAF | 0.177 |
| HMGGPRDVPYSTFLIEVEKGQVAEVTIQDHKITGTYKNSNEPFITNAPDDPDLVSRLIKYGVGVQAKPPE | 0.0182 |
| HMGGREEAGTDIARLLGYINDIHGEELIAKLEYYQKMLGSENFAVLMSRLPDGQKKELREQNLYSEYV | -0.298 |
| HMGGRRHANMSREEEAAFLAPFFEKAAQGGILVVREIRQALDAHLGRTVPLSTVYNLLHRHNWRKL | 0.379 |
| HMGGRTITVGISENMTVKDIAQMLEEKGLIEDARLFVVQELLSAYHKEIKPGIYDLSTDMTAAQMLEIMS | -1.32 |
| HMGGSIDITTAPPGAKIYLDADYYGKTPKRLENISAGTYRLHLLHPEKGEVYRSVTLNEKNGTLKIDENLN | 0.0705 |
| HMGGTATDYYNQGRTAYDVGDYNGALMNFQEAVRLDPRYGEAYYGLGKAYEALNMQNQALDAYLSAI | -1.46 |
| HMGGVSTDKPLNWDADGTSKLTQEQIDYLRSTYDLSDMSKQDYYDLMADLTNMNAISIKDVISQYVK | -0.462 |
| HMGGYVVVGDKDGFWSVVSTPVSKAKAEELLKDTTFPKGEKGKIVSVAEAMSHKKVIGKEYLESGGT | 0.0926 |
| HMGHASPGNREALQFALERHQARAAEFAEKAGLSIANASTKFKQLWEQGFLMRNESVADSGGVEFLYQR | -0.0683 |
| HMGHEISLNNSRFLKLLNKTKISISNDDTRHYLNGIFLHLTEAHGRQFLTGVATDSHRLSSSSLEID | -0.226 |
| HMGHRQRRARARNRSMLEDIPGLGPKRRQQLLRQFGGLPQLMRAGVAELSQVPGISDSLARKIHAELHPES | -1.87 |
| HMGHYGQMTRDLIEKAKTYEEGEEKAALVLTIANLMKRHYLTWNRATVENTLIAEQLKEMSEGALTLPEDV | -0.962 |
| HMGIAEGSSVFVRVLAAEDGGRYTVSFAGRRFSVLSRQALGIGSAFRADVKVEKGQVLLVPR | -0.348 |

| Sequence | soluble fraction (log2) |
| --- | --- |
| HMGIAERKEKQKLEIRNAILEASRKLIVEEGFEKVTMRKIADLIEYSPTTVYLYFKDKNEILFHLHQ | -0.798 |
| HMGIDVSAFSDTALEVLRLQAAGYTTREIAQQLHITQRTVKYHASENYRKLDARNLVDAVQIAQSLHI | -0.602 |
| HMGIEIKLLMSFMTDSGRKVSLFVTDPREDVTETEIKQVMDLIIEKNIFAPNGEDIVSAKEAKIVQT | -1.2 |
| HMGIERTNADTSFSVNVYGKELIITSNKPLVVNIYAIDGTLVRTEQVTIGVNTVSGLPSGIYVVGQQKVVI | -0.752 |
| HMGIIVDMSKIKQMLQLSEAGHSNRKIALELGINKETVNNYMQLIRNGRLDIRQLLKMDDPELERRFHA | 0.23 |
| HMGIKLSDRQMQIVEIVKSQQPITSEQVAERLNLTRAALRSDLSILTMAGILEARPKVGYSLTGR | 0.14 |
| HMGILPDDVKLNIKEAKKIGFPIMLKAIHGGGGRGMMIVQSEDEFADAMKITKTEAKNSFGNGDLYFEKFF | 0.0153 |
| HMGITRQQALQQINQSASPKKILNASLGKRGSEFVWDIGYLSKSGKLNYVTYSFRSGEQLNAIKN | -0.504 |
| HMGIVAGGTQSIATLRAIDTTDAQLYPDKILINVEDAGLYRLDRQSTATDDGNQVIKPTVGVGRWLKMTS | 0.0998 |
| HMGIVVDGTMTLEGVAERYGMSVGELARVIGVPPEYSNERLGRLRKSYEFEMDDIRIYIIQKQ | -1.31 |
| HMGKAYMVPDVKNKSVNQAQLLLADKHMNGVVVDSSYVKELPAGIVLDQTPVGGMKVKEGRTVYLTINSD | 0.0742 |
| HMGKDIYLTSGWVEKFDELNEFSNSVDNYDRLNQFGMYENAIIGDTGVIKITDEMIFDLYEKIQVPVEAGP | -1.04 |
| HMGKEDLTAAIKKMTLNDKLDIHKIVANFQTNDSEEVITAVKWLMENNYLLKIKNNYTWNTKEK | 0.22 |
| HMGKHYLLKDDNGTITIYKILEDGTQEVYEKTEISTTYLPQTDNIGIKQGIRVNGDEALNELIENF | -0.821 |
| HMGKKGPELSENEKSIFSILSKSGSMDLTTLKEASGLSNKQWDKGIKGLGKHGLTKVIKTEDALLVEVV | 0.0105 |
| HMGKKYVPGMAVKLSAVPLYAASTSKVPSTHVTGTYYLWDDEVVRGRLRITNLKSRVGISGQVTGWIDKDR | 0.0244 |
| HMGKNIQAIRYKNNMTQDQVVAKLNLMGISITKSTYAKLETNRMNIKASELVALAKLFHTDINAFFSG | -0.0779 |
| HMGKNYYEILGITKSASEEQVRKAFRGLAMEWHPDRNRSADSEERFKEINEAYQVLIDPKKRQMYDQYGR | 0.349 |
| HMGKPSSEELEALGRRTLEENVDVVEEILGGRDPKGKKIKYLEGLMMRALRGQETPEAVRRTLEELIFK | 0.00684 |
| HMGKRGKEMQTAVLAILRASDRPYSAYELLESLKDIYPKIAPPTVYRALAALTQRGQIRRLESLNAFI | 0.22 |
| HMGKRKDFTYTGNYFSEYKNQTFPSLSSFLKLVGKYENYGTIKRRVRFGWDIDEAILRENIN | -0.231 |
| HMGKSKAAQSSLVRSIMHQISDKNRGPMPLSEIIDRASIQSIDEAIVRSLVSRMKEQGEIYEPSLGTYEF | -0.163 |
